# Laboratory results taken from IntAct's records for PubMed 18628306.
# B1: Mitochondrial chaperone BCS1 (Homo sapiens), Q9Y276 (parent)
# chain: MPLSDFILALKDNPYFGAGFGLVGVGTALALARKGVQLGLVAFRRHYMITLEVPARDRSYAWLLSWLTRHSTRTQHLSVETSYLQHESGRISTKFEFVPSPGNHFIWYRGKWIRVERSREMQMIDLQTGTPWESVTFTALGTDRKVFFNILEEARELALQQEEGKTVMYTAVGSEWRPFGYPRRRRPLNSVVLQQGLADRIVRDVQEFIDNPKWYTDRGIPYRRGYLLYGPPGCGKSSFITALAGELEHSICLLSLTDSSLSDDRLNHLLSVAPQQSLVLLEDVDAAFLSRDLAVENPVKYQGLGRLTFSGLLNALDGVASTEARIVFMTTNHVDRLDPALIRPGRVDLKEYVGYCSHWQLTQMFQRFYPGQAPSLAENFAEHVLRATNQISPAQVQGYFMLYKNDPVGAIHNAESLRR
# Variants of: B1
# Settings: with letm1_human LETM1, O95202
# Chain of letm1_human LETM1, O95202 (O95202 whole entry): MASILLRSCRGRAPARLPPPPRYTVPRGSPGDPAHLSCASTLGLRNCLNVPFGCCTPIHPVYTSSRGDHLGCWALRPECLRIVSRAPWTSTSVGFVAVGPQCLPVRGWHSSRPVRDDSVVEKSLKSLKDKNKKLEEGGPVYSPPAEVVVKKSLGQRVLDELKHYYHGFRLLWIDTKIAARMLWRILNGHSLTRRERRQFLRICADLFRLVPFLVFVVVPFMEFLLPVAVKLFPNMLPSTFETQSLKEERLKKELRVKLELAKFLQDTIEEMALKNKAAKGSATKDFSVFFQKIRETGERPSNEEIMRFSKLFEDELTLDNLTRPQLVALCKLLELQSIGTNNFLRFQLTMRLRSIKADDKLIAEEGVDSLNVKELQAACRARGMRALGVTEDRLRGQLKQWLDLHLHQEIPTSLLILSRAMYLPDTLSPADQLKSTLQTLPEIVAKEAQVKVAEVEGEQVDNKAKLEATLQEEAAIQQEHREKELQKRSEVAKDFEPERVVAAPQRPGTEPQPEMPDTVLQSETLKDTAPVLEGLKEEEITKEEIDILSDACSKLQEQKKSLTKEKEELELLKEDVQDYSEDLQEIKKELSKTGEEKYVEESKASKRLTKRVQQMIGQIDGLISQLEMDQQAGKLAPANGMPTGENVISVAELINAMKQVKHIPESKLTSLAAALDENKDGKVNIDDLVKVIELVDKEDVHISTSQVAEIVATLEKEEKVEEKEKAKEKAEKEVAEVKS
row,Variant,effect of a mutation on the interaction
1,R155P,disrupting interaction
